Here are results for one molecule from paper PMC12463876, “AI-assisted design of ligands for lipocalin-2” (Frontiers in Immunology, 2025).

For the assay, the target named is T1, Recombinant human lipocalin-2 (LCN2) (human, UniProt P80188 21-198).
T1 construct: Lipocalin-2 (LCN2), human, recombinant; neither is said to be the construct used; also called neutrophil gelatinase-associated lipocalin; siderocalin; source: produced and purified by GenScript
Put plainly: SPR; MinP-2 immobilised by amine coupling on a CM5 chip (Biacore 8K); LCN2 injected at 7.8, 15.6, 31.2, 62.5 and 125 nM, 30 uL/min, contact 120 s, dissociation 600 s; 25 °C; 1:1 model. Conditions: both partners purified. Background: In SPR one partner is held on a chip, and binding of the other changes the refractive index at the surface.

T1 sequence (P80188 21-198): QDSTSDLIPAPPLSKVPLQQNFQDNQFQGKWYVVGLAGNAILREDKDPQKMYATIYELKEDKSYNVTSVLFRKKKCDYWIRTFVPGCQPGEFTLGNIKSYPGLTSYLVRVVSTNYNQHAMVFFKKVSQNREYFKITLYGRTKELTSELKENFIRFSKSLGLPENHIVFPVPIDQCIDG

B1: MinP-2 (designed binder)
chain: MSKATVYDVSTGKTYEVSLEDAKKLASYAVYEGGYPLRISVAPEDTKAILDAIKNTSKEKAEEGKKLLEELN
notes: de novo miniprotein (RFdiffusion, ProteinMPNN) designed against LCN2; Cloned into pET30b with a Twin-Strep tag; also called MiniP-2; source: E. coli BL21 (DE3) pLysS, purified (Strep-Tactin XT magnetic beads, dialysis)
Take B1: the dissociation constant (Kd) (commonly a measure of binding affinity in units of concentration) stood at 4.2 nM.
